Experiment: yeast display, Sf9 membrane polyspecificity reagent, FACS + sequencing; frameworks hold sequencing errors
Procedure, shortened: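 Nanobodies came from a synthetic yeast display library in Saccharomyces cerevisiae BJ5465, induced with galactose for 36–48 hours and stained for 1 hour at 4 °C with 10% biotinylated, detergent-solubilized Sf9 membrane reagent. Cells were enriched on streptavidin microbeads and then FACS-sorted, with low and high (top ~1%) gates set on anti-HA fluorescence for expression and streptavidin fluorescence for reagent binding. Each polyreactivity label reflects the gate a clone came from. Genes were amplified by colony PCR, sequenced by MiSeq 2 × 250 and filtered by CDR length.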

Sequence	polyreactivity (PSR sort gate)
QVQLVESGGGLVQAGGSLRLSCAASGIIFAYYAMGWYRQAPGKERELVASITNTGSTYYADSVKGRFTISRDNAKNTVYLQMNSLKPEDTAVYYCNAVLSSNTKWRYPGDYWGQGTQVTVSS	low polyreactivity
QVQLVESGGGLVQAGGSLRLSCAASGIIFDCNSMGWYRQAPGKERELVAANTSSTDSTYYADSVKGRFTISRDNAKNTVYLQLNSLKPEDTAVYYCAAAYPSKTFDYWGQGTQVTESS	low polyreactivity
QVQLVESGGGLVQAGGSLRLSCAASGIIFDDNTMGWYRQAPGKERELVAAISSGGRTYYADSVKGRFTISRDNAKYTVYLQMNSLKPEDTAVYYFNVDIYTYIASNGELDYWGQGTQVTVSS	low polyreactivity
QVQLVESGGGLVQAGGSLRLSCAASGIIFDEYAMGWYRQAPGKERELVAVIDWSGGSTYYADSVKGRFTISRDNAKKTVYLQMNSLKPEVTAVYYCAAEDDSSTPEFDYWGQGTQVTVSS	low polyreactivity
QVQLVESGGGLVQAGGSLRLSCAASGIIFDGNAMGWYRQAPGKERELVAAISSRGSRTYYADSVKGRFTISRDHAKNTVYLQMNSLKPEDTAVYYCNAGYGFRSYGYDPWGQGTQVTVSS	high polyreactivity
QVQLVESGGGLVQAGGSLRLSCAASGIIFDGNAMGWYRQAPGKERELVAAISSRGSRTYYADSVKGRFTISRDNAKNTVYLQMNSLKPEDTAVYSCNAGYVFRSYGYDPWGQGTQVTVSS	high polyreactivity
QVQLVESGGGLVQAGGSLRLSCAASGIIFDGYAMGWYRQAPGKERELVAAISRRGGSTYYADSVKGRFTISRDNAKNTVYLQMNSLKPEDTAVYYCAAEYVYWRIGQYDYWGQGTQVTVSS	high polyreactivity
QVQLVESGGGLVQAGGSLRLSCAASGIIFDINAMGWYRQAPGKERELVAAITTSVDSTYYADSVKGRFTISRDTAKNTVYLQMNSLKPEDTAVYYCAVAFVQFTQYDYWGQGTQVTVSS	low polyreactivity
QVQLVESGGGLVQAGGSLRLSCAASGIIFDKNAMGWYRQAPGKERELVAVITRGGSTYYADSVKGRFTISRDNAKNTVYLQMNSLKPEDTAVYYCAARYTPGFGYWGQGTQVTVSS	high polyreactivity
QVQLVESGGGLVQAGGSLRLSCAASGIIFDSYAMGWYRQAPGKERELVAAITSDSGRTYYADSVKGRFTISRDNAKNTVYLQMNSLKPEDTAVYYCAKRWDGPYDYWGHGTQVTVSS	low polyreactivity
QVQLVESGGGLVQAGGSLRLSCAASGIIFDTYAMGWYRPAPGKEREFVARISYSGGTTYYADSVKGRFTSSRDNAKNTVYLQMNSLKPEDTAVYYCATVSRRFYRWSSRYDYWGQGTQVTVSS	high polyreactivity
QVQLVESGGGLVQAGGSLRLSCAASGIIFDTYAMGWYRQAPGKERELVAAISRSGDTTYYADSVKGRFTISRDNAKNTVYLQMNSLKPEDTAVYYCNRGNRWNFDSWGQGTQVTVSS	high polyreactivity
QVQLVESGGGLVQAGGSLRLSCAASGIIFDYTAMGWYRQAPGKERELVAAITSTDNTNYADSVKGRFTISRDNAKNTVYLQMNSLKPEDTAVYYCNTDYWLSVVYAMDYWGQGTQVTVSS	low polyreactivity
QVQLVESGGGLVQAGGSLRLSCAASGIIFDYYAMGWYRQAPGKERELVATITSGGSTNYADSVKGRFTISRDNAKNTVYLQMNSLKPEDTAVYYCAKEYFATWLIPKYDYWGQGTQVTVSS	low polyreactivity
QVQLVESGGGLVQAGGSLRLSCAASGIIFEGKARGWYRQAPGTERELVAAISTSTGRTYYADSVKGRFTISRDNAKNTVYLQINSLKPEDTAVYYCAAYIRTTRFDYWGQGTQVTVSS	high polyreactivity
QVQLVESGGGLVQAGGSLRLSCAASGIIFEGYAMGWYRQAPGKERELVAAISQSGGSTRYADSVKGRFTISRDNAKNTVYLQMNSLKPEDTAVYYCAKEVWNWGPYYYWGQGTQVTVSS	low polyreactivity
QVQLVESGGGLVQAGGSLRLSCAASGIIFELYAMGWYRQAPGKEREFVAAINFSDGSTDYADSVKGRFTISRDNAKNTVYLQMNSLKPEDTAVYYCNADTIAYGSIIHGYWGQGTQVTVSS	low polyreactivity
QVQLVESGGGLVQAGGSLRLSCAASGIIFESYAMGWYRQAPGKERELVAAISWDGGSTYYADSVKGRFTISRDNAKNTVYLQMNSLKPEDTAVYYCAAESYGIYDGYDYWGQGTQVTVSS	high polyreactivity
QVQLVESGGGLVQAGGSLRLSCAASGIIFEYYAMGWYRQAPGKERELVAAITRGGSTYYADSVKGRFTISRDNAKNTVYLQMNSLKPEDTAVYYCAADRYYYEYEYWGQGTQVTVSS	low polyreactivity
QVQLVESGGGLVQAGGSLRLSCAASGIIFFKYGMGWYRQAPGKERELVAAITSGGSTYYADSVKGRFTISRDNAKNTVYLQMNSLKPEDTAVYYCNAQRYWRKVWEYESWGQGTQVTVSS	low polyreactivity
QVQLVESGGGLVQAGGSLRLSCAASGIIFFLYAMGWNRQAPGKERELVAAISSGGSTYYADSVKGRFTISRDNAKYTVYLQMNSLKPEDTAVYYFIARYWPFRYYYWGQGTQVTVSS	high polyreactivity

Sequence	polyreactivity (PSR sort gate)
QVQLVESGGGLVQAGGSLRLSCAASGIIFFSNTMGWYRQAPGKEREFVAAITWSTGNTYYADSVKGRFTISRDNAKNTVYLQMNSLKPEDTAVYYCYAEYLVITWYGGVEFDYWGQGTEVTVSS	low polyreactivity
QVQLVESGGGLVQAGGSLRLSCAASGIIFGGYAMGWYRQAPGKERELVAAIDSSGSSTYYADSVKGRFTISRDNAKNTVYLQMNSLKPEDTAVYYCNAASSGHSGRLTSIINDYWGQGTQVTVSS	high polyreactivity
QVQLVESGGGLVQAGGSLRLSCAASGIIFGLNAMGWYRQAPGKERELVAAIRRRGGSTYYADSVKGRYTISRDNAKTTVYLQMNSLKPEDTAVYYCAAAGGRYSRAAYDYWGQGTQVTVSS	low polyreactivity
QVQLVESGGGLVQAGGSLRLSCAASGIIFGLYAMGWYRQAPGKERELVAAITRSGGRTYYADSVKGRFTISRDNAKNTVYFQMNSLKPEDTAVYFCAADASGHSYDYWGQGTEVTVSS	high polyreactivity
QVQLVESGGGLVQAGGSLRLSCAASGIIFGRYAMGWYRQAPGKERELVAAINASGGSTYYADSVKGRFTISRDNAKNTVYLQMNSLKPEDTAVYYCATVHVWGFVYVGSGYWGQGTQVTVSS	high polyreactivity
QVQLVESGGGLVQAGGSLRLSCAASGIIFGRYAMGWYRQAPGKERELVAAINGSGGSTYYADSVKGRFTISRDNAKNTVYLQMNSLKPEDTAVYYCAANGFLRNGYWGQGTQVTVSS	high polyreactivity
QVQLVESGGGLVQAGGSLRLSCAASGIIFGRYAMGWYRQAPGKERELVAAISSRGGSTYYADSVKGRFTISRDNAKNTVYLQMNSLKPEDTAVYYCNKDDERGKLYYWGQGTQVTVSS	high polyreactivity
QVQLVESGGGLVQAGGSLRLSCAASGIIFGRYAMGWYRQAPGKERELVAAITWSGGGTYYADSVKGRFTISRDNAKNTVYLQMNSLKPEDTAVYYCAARTTPHWGYVSTNYWGQGTQVTVSS	low polyreactivity
QVQLVESGGGLVQAGGSLRLSCAASGIIFGRYAMGWYRQAPGKERELVATSSRGGGRTYYADSVKGRFTISRDNAKYTVYLLMNSLIPEDTAVYYCASYFYRGGLDSWGQGTQVTVSS	high polyreactivity
QVQLVESGGGLVQAGGSLRLSCAASGIIFGRYARGWYRQAPGKDRELVATISYRGGRTNYADSVKGRFTISRDNAKNTVYLQSNSLKPEDTAVYDCAAPHFSYSGGTHDYWGQGTQVTVSS	high polyreactivity
QVQLVESGGGLVQAGGSLRLSCAASGIIFGRYTMGWYRQAPGKERELVAAITSSGITYYADSVKGRFTISRDNAKNTVYLQMNSLKPEETAVYYCNADYSIPGYYWPYDYWGQGTQVTVSS	low polyreactivity
QVQLVESGGGLVQAGGSLRLSCAASGIIFGSNTMGWYRQAPGTERELVAAITSSDGSTHYADSVKGRFTISRDNAKNTVYLQMNRLKPEDTAVYYCAARKVTYGHSYGYDYWGQGTQVTVSS	low polyreactivity
QVQLVESGGGLVQAGGSLRLSCAASGIIFGSNVMGWYREAPGIERELVAAINYGGGSTYYADSVKGRFTISRDNAKKTVYLQMNSLKPEDTAVYYCAARGSRDYRYDYWGQGTQVTVSS	low polyreactivity
QVQLVESGGGLVQAGGSLRLSCAASGIIFGTYTMGWYRQAPGKERELVAAITYSGGRTYYADSVKGRFTISRDNAKNTVYLQMNSLKPEDTAVYYCAAYRSSWGYSPYDYWGQGTQVTVSS	high polyreactivity
QVQLVESGGGLVQAGGSLRLSCAASGIIFGYNAMGWYRQAPGKERELVAAINQDGSSTYYADSVKGRFTISRDNAKNTVYLQMNSLKPEDTAVYYCNARGVPRQDARMGYWGQGTQVTVSS	low polyreactivity
QVQLVESGGGLVQAGGSLRLSCAASGIIFGYNAMGWYRQAPGKERELVAAISTSGGSTYYADSVKGRFTISRDNAKNTVYLQMNSLKPEDTAVYYCAAGYRRTYGFNYWGQGTQVTVSS	low polyreactivity
QVQLVESGGGLVQAGGSLRLSCAASGIIFGYYAMGWYRQAPGKERELVAAITWSGGSTYYADSVKGRFTISRDNAKNTVYLQMNSLKPEDSAVYYCNADDDGRVSSTIVEYWGQGTQVTVSS	low polyreactivity
QVQLVESGGGLVQAGGSLRLSCAASGIIFGYYAMGWYRQAPGKERELVAGISSSDSTYYADSVKGRFTISRDNAKNTVYLQMNSLKPEDTAVYYCATPVYRSTYEYDYWGQGTQVTVSS	low polyreactivity
QVQLVESGGGLVQAGGSLRLSCAASGIIFGYYAMGWYRQATGKERELVAAINGRTGSTYYADSVKGRFTISRDNAKNTVYLQMNSLKPEDTAVYYCTAQSYKFHGDYWGQGTQVTVSS	high polyreactivity
QVQLVESGGGLVQAGGSLRLSCAASGIIFGYYARGWYRQAPGKARELVAAISRGGNTNYADSVKGRFTISRDNAKNTVYLQMNSLKPEDTAVYYCAADFWSRIKYFYAVDVDYWGQGTQVTVSS	low polyreactivity

Source: the nanobody polyreactivity screen of Harvey et al. (2022)
